Test results published in paper PMC6698954 (Antibodies, 2018).

Each binder was assayed against T1, Recombinant WEEV glycoprotein (E2/E3E2) (Western equine encephalitis virus, …, UniProt P13897) (assay: SPR; ProteOn XPR36; […] (20 µg/mL in 10 mM sodium acetate pH 5.0); […]). Settings: both partners purified.
T1 construct: source: bought: IBT Bioservices

| Binder | Kd [nM] | koff [s⁻¹] | kon [M⁻¹ s⁻¹] |
| --- | --- | --- | --- |
| anti-WEEV E2/E3E2 single-domain antibody WC10 (VHH, also called Bt-WC10) VHH: DVQLQASGGGLVEAGGSLRLSCTTSGISVRNSDMGWYRQGPGKQRELIARSSRGGATNYLDSVTGRFTISRDNIKNTVFLQMNSLKPEDTAVYYCNTNPINHWNVWGQGTQVTVSS | 8.5 | 0.85 | 1e+08 |
| anti-WEEV E2/E3E2 single-domain antibody WH11 (VHH, also called Bt-WH11) VHH: EVQLQASGGGLVQAGGSLRLTCVASGLTFVNYALDWYRQAPGKERELVAGMWSDGVAYYGDFVKGRFTMSRDNAKNMVYLQMNSLEPEDTAVYSCAARSRPTTQYDYWGQGTQVTVSS | 22 | 0.0033 | 150000 |
| anti-WEEV E2/E3E2 single-domain antibody WB9 (VHH, also called Bt-WB9) VHH: DVQLQASGGGLVQAGGSLRLSCATSGISVSNSDMGWYRQGPGKQRELVARNSRAGTTNYLDSVKGRFTISRDNAKNMVFLQMNSLKLEDTAVYYCNTNPINRWNIWGQGAQVTVSS | 2.6 | 0.0029 | 1.1e+06 |
| anti-WEEV E2/E3E2 single-domain antibody WF4 (VHH, also called Bt-WF4) VHH: DVQLQASGGGLVQAGGSLRLSCAVSDNTTSLNGMGYYRGPPGKQREFVAYARNNGAPKYADSVMGRFTISVDNSKATVYLQMNNLGPEDTALYYCYAPDRWHTYWAGGTQVTVSS | 24 | 0.0015 | 63000 |
| anti-WEEV E2/E3E2 single-domain antibody WD11f (VHH, also called Bt-WD11f) VHH: EVQLQASGGGLVQSGGSLRLSCAGSGGTESSYRMAWFRQAPGTERVFVARVSDGGGSILYADSAKGRFTISRDNGKNTIHLQMFSLKPEDTAVYFCAAAFSWMPPSTVAADYEYWGQGTQVTVSS | 7.2 | 0.53 | 7.3e+07 |
| anti-WEEV E2/E3E2 single-domain antibody WE10 (VHH, also called Bt-WE10) VHH: DVQLQASGGGLVQAGGSLRLSCVASGLTFVNYAIDWYRQAPGKEREVVAGMWNDGVAYYGDFVKGRFTIARDNAKNTVYLQMNNLKPEDTAVYFCGARSRPNLQYDYWGQGTQVTVSS | 12 | 0.00083 | 70000 |
